For assay [1], the target named is JS016-WT (wild-type control antibody). Put plainly: BLI. A general note: BLI is a label-free optical method that tracks binding on a fibre tip over time.
Assay [2] concerns the target Fc gamma receptor Type IIIa, FcγRIIIa (F176) (human) (UniProt P08637). The experiment in a line: BLI.
Chain of UniProt P08637 (P08637 17-254): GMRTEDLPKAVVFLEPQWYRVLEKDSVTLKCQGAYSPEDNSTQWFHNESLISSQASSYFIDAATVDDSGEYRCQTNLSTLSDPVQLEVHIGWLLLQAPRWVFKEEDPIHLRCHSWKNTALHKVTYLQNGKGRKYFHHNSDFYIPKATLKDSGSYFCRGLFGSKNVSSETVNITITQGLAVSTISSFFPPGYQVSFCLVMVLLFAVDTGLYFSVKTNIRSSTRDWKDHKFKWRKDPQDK

A word on the Kd: it is the concentration at which binding is half-saturated. A high value points to lower affinity. For the substance “C1q (first subcomponent of the C1 complex)”, the Kd in assay [1] worked out at 0.00212 µM.

With JS016-WT (wild-type control antibody), in assay [2], the Kd stood at 2 µM.

These data come from article PMC8726686.
